Measurements taken from the RNAGym collection of RNA variant scans (doi:10.1021/acssynbio.7b00057).

B1: Pistol ribozyme (parent)
chain: GGGUCGUUGUUCCAUAAUCGCGUGGAUAUGGCACGCAAGUUUCUACCGGGCACCGUAAAUGUCCGACUGGAGCCGUUCGGGCGGCUAUAAACAGACCUCAGGCCCGAAGCGUGGCGGCACCUGCCGCCGGUGGUAAAAAAGAUCGGAAGAGCACACGUCU

Variants of: B1
Assay: aptazyme ON/OFF ratio, guanine; higher = stronger switching; co-transcriptional cleavage with and without guanine

Variant	aptazyme ON/OFF ratio
U7C U8G G9U U10A C12U C13A	1.2
U7C U8G G9U U10A C12U C13G	1.2
U7C U8G G9U U10A C12U C13U	1.35
U7C U8G G9U C13U	1.55
U7C U8G G9U C13A	1.31
U7C U8G G9U C13G	1.06
U7C U8G G9U U10C U11C C12A C13A	1.06
U7C U8G G9U U10C U11C C12A C13U	1.18
U7C U8G G9U U10C U11C C12A C13G	1.19
U7C U8G G9U U10G U11A C12G C13U	1.32
U7C U8G G9U U10G U11A C12G C13A	1.15
U7C U8G G9U U10G U11A C12G C13G	1.3
U7C U8G G9U U10G C13U	1.2
U7C U8G G9U U10G C13A	1.19
U7C U8G G9U U10G C13G	1.17
U7C U8G G9U U10C U11A C13U	1.35
U7C U8G G9U U10C U11A C13G	1.24
U7C U8G G9U U10C U11A C13A	1.24
U7C U8G G9U U10A U11G	1.22
U7C U8G G9U U10A U11C	1.04
U7C U8G G9U U10A U11A	1.34

Variant	aptazyme ON/OFF ratio
U7C U8G G9U U10C U11C	1.06
U7C U8G G9U U10C U11G	1.23
U7C U8G G9U U10C U11A	1.5
U7C U8G G9U U10C U11G C12G	1.21
U7C U8G G9U U10C U11G C12A	1.14
U7C U8G G9U U10C U11G C12U	1.28
U7C U8G G9U C12U C13A	1.31
U7C U8G G9U C12U C13U	1.2
U7C U8G G9U C12U C13G	1.33
U7C U8G G9U U10A U11C C12U C13A	1.09
U7C U8G G9U U10A U11C C12U C13U	1.06
U7C U8G G9U U10A U11C C12U C13G	1.11
U7C U8G G9U U10A U11G C12A C13U	1.06
U7C U8G G9U U10A U11G C12A C13G	1.14
U7C U8G G9U U10A U11G C12A C13A	1.11
U7C U8G G9U U10G C12U C13A	1.17
U7C U8G G9U U10G C12U C13G	1.1
U7C U8G G9U U10G C12U C13U	1.32
U7C U8G G9U U10C C12G C13A	1.28
U7C U8G G9U U10C C12G C13U	1.25
U7C U8G G9U U10C C12G C13G	1.34

Variant	aptazyme ON/OFF ratio
U7C U8G G9U U10G U11A C12U C13A	1.24
U7C U8G G9U U10G U11A C12U C13G	1.17
U7C U8G G9U U10G U11A C12U C13U	1.26
U7C U8G G9U U10A U11A C12U C13U	1.25
U7C U8G G9U U10A U11A C12U C13G	1.08
U7C U8G G9U U10A U11A C12U C13A	1.22
U7C U8G G9U U10A C12U	1.15
U7C U8G G9U U10A C12G	1.18
U7C U8G G9U U10A C12A	1.33
U7C U8G G9U U10A U11C C12A C13U	1.13
U7C U8G G9U U10A U11C C12A C13G	1.16
U7C U8G G9U U10A U11C C12A C13A	1.16
U7C U8G G9U U10A C13G	1.08
U7C U8G G9U U10A C13U	1.1
U7C U8G G9U U10A C13A	1.14
U7C U8G G9U U10G U11A C12A C13G	1.17
U7C U8G G9U U10G U11A C12A C13U	1.26
U7C U8G G9U U10G U11A C12A C13A	1.18
U7C U8G G9U U10G C12A	1.15
U7C U8G G9U U10G C12G	1.08
U7C U8G G9U U10G C12U	1.12

Variant	aptazyme ON/OFF ratio
U7C U8G G9U U10C U11A C12U C13U	1.34
U7C U8G G9U U10C U11A C12U C13A	1.24
U7C U8G G9U U10C U11A C12U C13G	1.27
U7C U8G G9U U10C C13A	1.15
U7C U8G G9U U10C C13G	1.13
U7C U8G G9U U10C C13U	2.24
U7C U8G G9U U10A U11G C12G	1.23
U7C U8G G9U U10A U11G C12A	1.11
U7C U8G G9U U10A U11G C12U	1.19
U7C U8G G9U U10A	1.12
U7C U8G G9U U10G	1.28
U7C U8G G9U U10C	2.72
U7C U8G G9U U10G U11A	1.13
U7C U8G G9U U10A U11G C13A	1.13
U7C U8G G9U U10A U11G C13U	1.28
U7C U8G G9U U10A U11G C13G	1.04
U7C U8G G9U U10G U11A C13A	1.1
U7C U8G G9U U10G U11A C13G	1.08
U7C U8G G9U U10A U11A C12A C13A	1.16
U7C U8G G9U U10A U11A C12A C13U	1.24
U7C U8G G9U U10A U11A C12A C13G	1.14
